Assays:
Assay in all cases: ELISA; Fab fragments (IGH526, HCV1) coated ~2 μg per well; purified E1E2-DHD15 or E1E2-Fc serially diluted in 25 mM Tris, 150 mM NaCl, pH 7.4, 0.05% Tween-20, 1% BSA; detection by anti-FLAG M2 and/or HRP anti-mouse IgG
Conditions in all cases: both partners purified
[1] = molecular target: T1, E1E2-Fc heterodimer (HCV E1 and E2 ectodomains, Fc-tagged), mammalian cell expressed (hepatitis C virus genotype 1b, Con1, UniProt Q9WMX2)
T1 construct: source: HEK293F, transient (pMlink), secreted, purified

[2] = molecular target: T2, E1E2-DHD15 heterodimer (HCV E1 and E2 ectodomains with the de novo designed heterodimeric tag DHD15), insect … (hepatitis C virus genotype 1b, Con1, UniProt Q9WMX2)
T2 construct: source: High-5 insect cells (baculovirus), secreted, purified (Ni-NTA, Flag M2, SEC)

[3] = molecular target: T3, E1E2-DHD15 heterodimer (HCV E1 and E2 ectodomains with the de novo designed heterodimeric tag DHD15), … (hepatitis C virus genotype 1b, Con1, UniProt Q9WMX2)
T3 construct: source: HEK293F, transient (pMlink), secreted, purified

[4] = molecular target: T4, E1E2-Fc oligomer (oligomeric SEC fraction of Fc-tagged HCV E1E2), expressed in HEK293 cells (hepatitis C virus genotype 1b, Con1, UniProt Q9WMX2)
T4 construct: also called E1E2 oligomer; oligomeric E1E2; source: HEK293F, transient (pMlink), secreted, purified (oligomer peak of the SEC)

Measured: binding result

B1: Fab fragment of neutralizing antibody HCV1 (Fab, V domains shown)
VH: EVQLLESGGGVVQPGRSLRLSCTASGFTFNNYGMHWVRQTPGKGLEWLAVIWFDENNKYYADSVRGRFTISRDNSKNTLFLQMNSLKTEDTAMYYCARDISLVRDAFIYFDFWGLGTLVTVSS
VL: ELTLTQSPATLSLSPGERATLSCRASQSVSSYLAWYQQKPGQAPRLLIYDASNRATGIPARFSGSGSGTDFTLTISSLEPEDFAVYYCQQRSNWITFGQGTRLEIK
notes: source: HEK293F, transient (pMlink), purified
binds: [1] | [2] | [3] | [4]

Reference: article PMC6530877 (PLoS Pathogens, 2019)
